Source: patent US6943279B1, “Amino polyol amine oxidase polynucleotides and related polypeptides and methods of use” (priority 1999, dated 2005)

B1: S206A: APAO mutated to alter the serine at position 206 to an alanine (SEQ ID NO: 33) (protein)
chain: MALAPSYINPPNVASPAGYSHVGVGPDGGRYVTIAGQIGQDASGVTDPAYEKQVAQAFANLRACLAAVGATSNDVTKLNYYIVDYAPSKLTAIGDGLKATFALDRLPPCTLVPVSALSSPEYLFEVDATALVPGHTTPDNVADVVVVGAGLSGLETARKVQAAGLSCLVLEAMDRVGGKTLSVQSGPGRTTINDLGAAWINDSNQAEVSRLFERFHLEGELQRTTGNSIHQAQDGTTTTAPYGDSLLSEEVASALAELLPVWSQLIEEHSLQDLKASPQAKRLDSVSFAHYCEKELNLPAVLGVANQITRALLGVEAHEISMLFLTDYIKSATGLSNIFSDKKDGGQYMRCKTGMQSICHAMSKELVPGSVHLNTPVAEIEQSASGCTVRSASGAVFRSKKVVVSLPTTLYPTLTFSPPLPAEKQALAENSILGYYSKIVFVWDKPWWREQGFSGVLQSSCDPISFARDTSIDVDRQWSITCFMVGDPGRKWSQQSKQVRQKSVWDQLRAAYENAGAQVPEPANVLEIEWSKQQYFQGAPSAVYGLNDLITLGSALRTPFKSVHFVGTETSLVWKGYMEGAIRSGQRGAAEVVASLVPAA
modifications: Glyc(-) APAO; mutation in glycosylation sites (Exophiala spinifera)

Key:
Format in all cases: biochemical
[1] = Other enzymes tested for ability to modify AP1, radiolabeled TLC; conditions: optimal conditions at 37° Celsius, overnight or longer
Protocol: For analysis of APAO activity, an alternative method was used. Equal volumes of sample and ^14C-AP1 (1 mg/ml, pH 8, 50 mM sodium phosphate) were incubated at room temperature for one to six days. Analytical thin-layer chromatography was then carried out on C60 HPK silica gel plates (Whatman #4807-700; 10×10 cm; 0.2 mm thick). After application of from 0.1 to 2 μl of aqueous sample, the plates were air-dried and developed in CHCl3:MeOH:CH3COOH:H20 (55:36:8:1). Plates were then air dried, and exposed to Phosphorlmager screen (Molecular Dynamics) or autoradiographic film. A Storm™ Phosphorlmager (Molecular Dynamics) was used to scan the image produced on the screen.
Other enzymes were tested for their ability to modify AP1. All enzymes were assayed by radiolabeled TLC, as described above, under optimal conditions at 37° Celsius, overnight or longer.

[2] = Site-directed mutagenesis vectors: maize transient expression, APAO or trAPAO activity; conditions: transient expression in maize
Source text: Please see the table above entitled “Table of site-directed mutagenesis vectors and enzyme assay results.” Thus, elimination of this glycosylation site is not in itself sufficient to have an active protein upon secretion. This could be due to glycosylation occurring at a second adjacent site (N201-S203). However, no active APAO was recovered when either N201 or S203 is mutated along with S206. […] This is backed up by predicted solvent accessibility numbers for these residues in the 3-D model based on the maize amine oxidase. Please see the table below entitled “Solvent accessibility for cysteine residues of truncated APAO.” The elimination of APAO glycosylation site at amino acids 204 to 206 is not sufficient to allow APAO to be secreted from the ccil and retain full enzyme activity, but elimination of this site may improve chances for obtaining a fully active enzyme once the other roadblock(s) to secretability have been resolved. In other words, elimination of this site may be necessary but not sufficient to produce active secretable APAO.

[3] = Mutated APAO lysates from E coli, Amplex Red assay, substrate AP1; conditions: Glyc(−) APAO lysates from E coli
[4] = Mutated APAO lysates from E coli, Amplex Red assay, substrate FB1; conditions: Glyc(−) APAO lysates from E coli

| Molecule | Result (ability to modify AP1) [1] | Maize expression vector, APAO or trAPAO Activity (Act) [2] | Conclusion [3] | M H2O2/min [3] [μM H2O2/min] | Conclusion [4] | M H2O2/min [4] [μM H2O2/min] |
| --- | --- | --- | --- | --- | --- | --- |
| D-amino oxidase: EC 1.4.3.3, porcine kidney: Type X | negative |  |  |  |  |  |
| B1 |  | no detectable enzyme activity | Partially Active | 0.85 | Slightly active | 0.07 |
